Data as given in paper PMC10645843, “Fungal secondary metabolism is governed by an RNA-binding protein CsdA/RsdA complex” (Nature Communications, 2023).

Assays:
[1] = target: T1, GST-CsdA (Pestalotiopsis fici CGMCC3.15140, UniProt W3WSJ8 1-634); assay: ITC; EMSA: Beyotime EMSA kit buffer, 20 min at 25 C, 6% polyacrylamide gel; ITC: 200 uM RNA into 50 uM CsdA, 25 C, buffer not stated (protein elution buffer 50 mM Tris, 150 mM NaCl, 10 mM GSH, pH 8.0); conditions: protein: recombinant; tags: GST (N-terminal, pGEX-4T; pYSZL6)
T1 sequence: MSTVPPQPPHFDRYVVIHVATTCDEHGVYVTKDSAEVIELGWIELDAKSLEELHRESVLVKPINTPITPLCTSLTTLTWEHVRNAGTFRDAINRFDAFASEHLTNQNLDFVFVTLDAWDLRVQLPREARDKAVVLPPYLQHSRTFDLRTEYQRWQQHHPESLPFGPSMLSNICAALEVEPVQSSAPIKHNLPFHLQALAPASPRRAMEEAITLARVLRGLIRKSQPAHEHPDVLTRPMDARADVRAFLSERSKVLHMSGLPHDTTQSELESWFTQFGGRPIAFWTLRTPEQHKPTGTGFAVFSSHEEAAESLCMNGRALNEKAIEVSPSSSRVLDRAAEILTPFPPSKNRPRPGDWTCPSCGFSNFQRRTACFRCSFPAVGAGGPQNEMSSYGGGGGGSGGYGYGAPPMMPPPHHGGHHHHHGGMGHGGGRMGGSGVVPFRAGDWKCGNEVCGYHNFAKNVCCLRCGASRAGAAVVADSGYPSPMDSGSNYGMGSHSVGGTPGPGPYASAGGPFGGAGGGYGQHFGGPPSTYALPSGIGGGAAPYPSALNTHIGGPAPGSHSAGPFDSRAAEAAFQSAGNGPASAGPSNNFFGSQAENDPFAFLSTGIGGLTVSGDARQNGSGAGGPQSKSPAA

[2] = target: T2, RsdA-His (PFICI_10532), recombinant (Pestalotiopsis fici, UniProt W3WX91 1-730); assay: pull-down; His pull-down: RsdA-His (or RsdA^ΔC-terminal-His) held on Ni-NTA resin, purified GST-CsdA or its deletion forms added, overnight at 4 °C; binding buffer 50 mM Tris, 250 mM NaCl, 0.2% glycerol, 5 mM DTT, 0.6% Triton X-100, 1 mM PMSF, pH 7.5; wash with 1% Triton X-100; western blot with anti-His and anti-GST; conditions: both partners purified
T2 construct: RsdA, regulator of secondary metabolism and development, Pestalotiopsis fici, locus PFICI_10532; open reading frame amplified from P. fici cDNA; RsdA-His printed as 80.4 kDa; Printed as RsdA-His; vector pET28a (His6-tag); also called PfRsdA; RsdA-His protein; source: E. coli BL21 (plasmid pYZS42, pET28a), purified (Ni-NTA resin)
T2 sequence (looked up): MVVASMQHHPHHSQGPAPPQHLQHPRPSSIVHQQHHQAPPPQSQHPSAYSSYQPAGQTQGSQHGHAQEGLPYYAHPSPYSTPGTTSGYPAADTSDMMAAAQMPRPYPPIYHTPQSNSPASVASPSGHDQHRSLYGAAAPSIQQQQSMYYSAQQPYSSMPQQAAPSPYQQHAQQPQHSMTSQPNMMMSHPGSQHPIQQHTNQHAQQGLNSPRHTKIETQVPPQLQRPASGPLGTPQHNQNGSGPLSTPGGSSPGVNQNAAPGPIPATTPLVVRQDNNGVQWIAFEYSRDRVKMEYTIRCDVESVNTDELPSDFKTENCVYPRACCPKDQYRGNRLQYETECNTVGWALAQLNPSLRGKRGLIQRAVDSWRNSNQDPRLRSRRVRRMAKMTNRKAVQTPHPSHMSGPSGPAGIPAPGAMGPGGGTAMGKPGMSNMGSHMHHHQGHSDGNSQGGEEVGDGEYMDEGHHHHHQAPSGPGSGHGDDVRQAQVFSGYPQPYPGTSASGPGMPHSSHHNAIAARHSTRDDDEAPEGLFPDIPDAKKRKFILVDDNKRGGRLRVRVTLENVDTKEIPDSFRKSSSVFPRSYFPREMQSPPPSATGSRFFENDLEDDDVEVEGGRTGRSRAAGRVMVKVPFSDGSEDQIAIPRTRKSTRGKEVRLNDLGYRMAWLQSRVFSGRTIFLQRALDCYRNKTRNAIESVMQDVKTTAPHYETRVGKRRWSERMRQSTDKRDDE

[3] = target: T1, GST-CsdA; assay: EMSA; EMSA: Beyotime EMSA kit buffer, 20 min at 25 C, 6% polyacrylamide gel; ITC: 200 uM RNA into 50 uM CsdA, 25 C, buffer not stated (protein elution buffer 50 mM Tris, 150 mM NaCl, 10 mM GSH, pH 8.0); conditions: protein: recombinant; tags: GST (N-terminal, pGEX-4T; pYSZL6); label: biotin

GUCGGUAU (ssRNA) [1xGUCGGUAU RNA (ITC)]
Kd [1]: 19.7 ± 3.67 µM

B1: GST-CsdA (PFICI_10709), recombinant (natural protein, Pestalotiopsis fici, UniProt W3WSJ8 1-634, looked up)
chain: MSTVPPQPPHFDRYVVIHVATTCDEHGVYVTKDSAEVIELGWIELDAKSLEELHRESVLVKPINTPITPLCTSLTTLTWEHVRNAGTFRDAINRFDAFASEHLTNQNLDFVFVTLDAWDLRVQLPREARDKAVVLPPYLQHSRTFDLRTEYQRWQQHHPESLPFGPSMLSNICAALEVEPVQSSAPIKHNLPFHLQALAPASPRRAMEEAITLARVLRGLIRKSQPAHEHPDVLTRPMDARADVRAFLSERSKVLHMSGLPHDTTQSELESWFTQFGGRPIAFWTLRTPEQHKPTGTGFAVFSSHEEAAESLCMNGRALNEKAIEVSPSSSRVLDRAAEILTPFPPSKNRPRPGDWTCPSCGFSNFQRRTACFRCSFPAVGAGGPQNEMSSYGGGGGGSGGYGYGAPPMMPPPHHGGHHHHHGGMGHGGGRMGGSGVVPFRAGDWKCGNEVCGYHNFAKNVCCLRCGASRAGAAVVADSGYPSPMDSGSNYGMGSHSVGGTPGPGPYASAGGPFGGAGGGYGQHFGGPPSTYALPSGIGGGAAPYPSALNTHIGGPAPGSHSAGPFDSRAAEAAFQSAGNGPASAGPSNNFFGSQAENDPFAFLSTGIGGLTVSGDARQNGSGAGGPQSKSPAA
notes: open reading frame amplified from P. fici cDNA; CsdA said to contain 730 amino acids; GST-CsdA printed as 93.6 kDa; Printed as GST-CsdA; vector pGEX-4T (GST-tag); also called PfCsdA; GST-CsdA protein; source: E. coli BL21 (plasmid pYSZL6, pGEX-4T), purified (GST-tag resin)
binding result [2]: binds

CCAGGGAGGUGAAGAAGUCGGUAUGUUUCACCAGAUGUGAU (ssRNA) [rsdA intron 2 5' splice site RNA (EMSA probe)]
binding result [3]: binds

GUCGGUAUCGUCGGUAUGGUCGGUAUUGUCGGUAU (ssRNA) [4xGUCGGUAU RNA (ITC)]
Kd [1]: 10.5 ± 5.12 µM
